According to the Human Domainome abundance scans (Beltran et al. 2025):
± gives the uncertainty stated by the source.

B1: Chromodomain-helicase-DNA-binding protein 3, residues 374 to 426; numbered along this chain, Q12873 (parent)
chain: YETDHQDYCEVCQQGGEIILCDTCPRAYHLVCLDPELDRAPEGKWSCPHCEKE

Variants of: B1
Test: abundance fitness (aPCA) (normalised: wild type 0, dead -1); higher = more abundant; growth selection in yeast, the domain comes from the species named
Conditions: Homo sapiens

Row | Variant | abundance fitness
1 | D22L | -0.171 ± 0.14
2 | D22M | 0.008 ± 0.28
3 | D22N | -0.008 ± 0.15
4 | D22P | -0.109 ± 0.18
5 | D22Q | 0.557 ± 0.18
6 | D22R | 0.053 ± 0.14
7 | D22S | 0.048 ± 0.15
8 | D22T | -0.222 ± 0.16
9 | D22V | -0.204 ± 0.12
10 | D22W | -0.013 ± 0.17
11 | D22Y | -0.142 ± 0.22
12 | T23A | -0.337 ± 0.14
13 | T23D | -0.308 ± 0.2
14 | T23E | -0.077 ± 0.16
15 | T23F | -0.035 ± 0.11
16 | T23G | -0.248 ± 0.2
17 | T23H | -0.146 ± 0.13
18 | T23I | -0.189 ± 0.12
19 | T23K | -0.696 ± 0.19
20 | T23L | -0.22 ± 0.099
21 | T23M | 0.024 ± 0.2

Row | Variant | abundance fitness
22 | T23N | 0.122 ± 0.15
23 | T23P | -0.596 ± 0.14
24 | T23Q | -0.455 ± 0.27
25 | T23R | -0.179 ± 0.11
26 | T23S | 0.032 ± 0.1
27 | T23V | -0.162 ± 0.17
28 | T23W | -0.631 ± 0.19
29 | T23Y | 0.05 ± 0.12
30 | C24A | -0.799 ± 0.23
31 | C24D | -0.754 ± 0.22
32 | C24E | -1.16 ± 0.26
33 | C24F | -1.05 ± 0.23
34 | C24G | -0.962 ± 0.14
35 | C24H | -0.907 ± 0.25
36 | C24I | -0.9 ± 0.35
37 | C24K | -0.919 ± 0.21
38 | C24M | -0.914 ± 0.24
39 | C24P | -1.11 ± 0.21
40 | C24Q | -0.898 ± 0.24
41 | C24R | -0.951 ± 0.14
42 | C24S | -0.617 ± 0.15

Row | Variant | abundance fitness
43 | C24T | -0.687 ± 0.17
44 | C24V | -1.08 ± 0.15
45 | C24W | -1.12 ± 0.19
46 | C24Y | -1.34 ± 0.24
47 | P25A | 0.092 ± 0.14
48 | P25C | 0.04 ± 0.18
49 | P25D | -0.482 ± 0.28
50 | P25F | -0.021 ± 0.37
51 | P25H | -0.249 ± 0.26
52 | P25I | -0.261 ± 0.33
53 | P25K | -0.385 ± 0.18
54 | P25M | -0.227 ± 0.24
55 | P25N | -0.204 ± 0.4
56 | P25Q | -0.39 ± 0.23
57 | P25R | -0.235 ± 0.12
58 | P25S | -0.116 ± 0.13
59 | P25T | -0.004 ± 0.14
60 | P25W | -0.144 ± 0.14
61 | R26A | -0.202 ± 0.11
62 | R26C | -0.669 ± 0.24
63 | R26D | -0.159 ± 0.15

Row | Variant | abundance fitness
64 | R26E | -0.123 ± 0.13
65 | R26G | -0.046 ± 0.091
66 | R26H | -0.17 ± 0.18
67 | R26I | -0.445 ± 0.17
68 | R26L | 0.155 ± 0.1
69 | R26M | -0.106 ± 0.16
70 | R26N | -0.169 ± 0.16
71 | R26P | -0.655 ± 0.17
72 | R26Q | 0.417 ± 0.28
73 | R26S | 0.087 ± 0.1
74 | R26V | -0.363 ± 0.1
75 | R26Y | -0.148 ± 0.15
76 | A27K | -0.407 ± 0.41
77 | Y28A | 0.122 ± 0.12
78 | Y28C | -0.189 ± 0.15
79 | Y28D | -0.593 ± 0.18
80 | Y28E | -0.48 ± 0.21
81 | Y28F | -0.145 ± 0.12
82 | Y28G | -0.191 ± 0.14
83 | Y28H | 0.148 ± 0.13
84 | Y28I | 0.013 ± 0.13
